Assay [1] has as its target FH-p53 (FLAG- and oligohistidine-tagged human p53) (human) (UniProt P04637). The assay can be described thus: pull-down; competitive GST pull-down: FH-TLP or FH-TBP co-applied with FH-p53 to beads with GST-TBP or GST-TLP; recovered p53 by band intensity.
The target of assay [2] is GST-TBP (glutathione S-transferase-tagged human TATA-binding protein) (human) (UniProt P20226). As to the kind of experiment: pull-down; GST pull-down with increasing amounts of protein (p53 by the text, GST proteins by the legend); ratio of bound p53 to input by band intensity.
Sequence of GST-TBP (glutathione S-transferase-tagged human TATA-binding protein) (human) (P20226 whole entry): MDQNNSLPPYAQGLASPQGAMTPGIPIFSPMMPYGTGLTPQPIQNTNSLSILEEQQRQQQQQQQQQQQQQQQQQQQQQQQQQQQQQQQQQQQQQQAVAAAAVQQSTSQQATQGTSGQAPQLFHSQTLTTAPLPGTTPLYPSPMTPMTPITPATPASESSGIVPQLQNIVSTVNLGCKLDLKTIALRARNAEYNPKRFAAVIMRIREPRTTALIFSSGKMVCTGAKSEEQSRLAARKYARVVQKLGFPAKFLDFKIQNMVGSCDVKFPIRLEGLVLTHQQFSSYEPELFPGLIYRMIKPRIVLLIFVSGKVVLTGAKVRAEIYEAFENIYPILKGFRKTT

In the case of “FH-TBP (purified competitor in the pull-down) (from UniProt P20226 1-339) (natural protein)”, in assay [1], the p53 recovered on GST-TLP with FH-TBP as competitor, percent of the control experiment is 6%.

With “FH-p53 (FLAG- and oligohistidine-tagged human p53) (from UniProt P04637 1-393) (natural protein)”, in assay [2], the ratio of bound p53 to input at the plateau was 0.5.

The record behind these values is article PMC3940844.
